Assay [1] concerns the target T1, huCD137-His (recombinant human CD137 with C-terminal polyhistidine tag, R&D Systems) (human, UniProt Q07011 24-186).
T1 construct: also called biotinylated huCD137-His; not shown: C-terminal polyhistidine tag
In words: dual-binding ELISA: huCD137-His coated, fusion titrated, detection with biotinylated huGPC3. The procedure:
Recombinant huCD137-His (R&D Systems) in PBS (1 μg/mL) was coated overnight on microtiter plates at 4° C. The plates were washed five times after each incubation step with 100 μL PBS-0.05% T. The plates were blocked with PBS-0.1% T-2% BSA for 1 h at room temperature and subsequently washed again. Different concentrations of tested fusion proteins were added to the wells and incubated for 1 h at room temperature, followed by a wash step. Subsequently, biotinylated huGPC3 was added at a constant concentration of 1 μg/mL in PBS-0.1% T-2% BSA for 1 h. After washing, a 1:5000 dilution of ExtrAvidin-HRP (Sigma-Aldrich) in PBS-0.1% T-2% BSA was added to the wells and incubated for 1 h. After an additional wash step, fluorogenic HRP substrate (QuantaBlu, Thermo) was added to each well, and the fluorescence intensity was detected using a fluorescence microplate reader.
Exemplary dual binding data are shown in FIG. 3, together with the fit curves resulting from a 1:1 sigmoidal binding fit, where the EC₅₀ value and the maximum signal were free parameters, and the slope was fixed to unity.
In general terms: In an ELISA, binding on a coated surface is turned into a signal by an enzyme label.

The target in assay [2] is T2, human GPC3 expressed on cells (SK-Hep1::huGPC3; HepG2, Hep3B and MKN-45 tumor cells) (human, UniProt P51654 25-554).
T2 construct: whole, on cells; also called GPC3-positive tumor cells; human GPC3-expressing cells
T2 sequence (P51654 25-554 limits assumed): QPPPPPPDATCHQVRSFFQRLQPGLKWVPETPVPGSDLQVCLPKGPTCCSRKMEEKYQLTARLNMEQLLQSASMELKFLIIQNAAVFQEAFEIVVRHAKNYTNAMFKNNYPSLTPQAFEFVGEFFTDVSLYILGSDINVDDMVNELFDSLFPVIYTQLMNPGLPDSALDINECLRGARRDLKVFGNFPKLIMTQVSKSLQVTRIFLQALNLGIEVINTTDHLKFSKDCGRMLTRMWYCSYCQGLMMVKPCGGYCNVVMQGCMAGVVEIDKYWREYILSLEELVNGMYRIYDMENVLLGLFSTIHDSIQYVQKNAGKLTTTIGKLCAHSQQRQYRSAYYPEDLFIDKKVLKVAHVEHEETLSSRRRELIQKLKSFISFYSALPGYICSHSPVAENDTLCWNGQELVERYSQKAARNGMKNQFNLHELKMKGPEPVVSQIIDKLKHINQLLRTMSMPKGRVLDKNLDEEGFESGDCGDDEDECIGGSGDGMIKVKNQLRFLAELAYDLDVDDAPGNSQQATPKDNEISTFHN
In words: flow cytometry on Hep3B tumor cells (GPC3 positive). Here is the method: (§1) 5×10⁴ cells per well were incubated for 1 h in ice-cold PBS containing 5% fetal calf serum (PBS-FCS). A dilution series of the testing molecule were added to the cells and incubated for 1 h on ice. Cells were washed twice with PBS and then incubated with a goat anti-hlgG Alexa647-labeled antibody or goat anti-hlgG Alexa488-labeled antibody for 30 min on ice. Cells were subsequently washed and analyzed using iQue Flow cytometer (Intellicyte Screener). Mean geometric fluorescent signals were plotted and fitted with Graphpad software. The geometric means of the fluorescence intensity were used to calculate EC₅₀ values using a four-parameter logistic regression with bottom fixed to background.
(§2) For flow cytometric analysis, tumor cell lines with different GPC3 expression levels (high to moderate expression: HepG2>Hep3B>MKN-45) and GPC3 negative cell line NCI-N87 were incubated with an exemplary fusion protein SEQ ID NOs: 87 and 82, the GPC3 antibody or the CD137 specific lipocalin mutein (Fc fusion) as included in the fusion protein (SEQ ID NOs: 81 and 82 and SEQ ID NO: 98, respectively), a reference CD137 antibody SEQ ID NOs: 26 and 27, or an isotype control (SEQ ID NO: 24 and 25), and detected using a fluorescently labeled anti-human IgG antibody as described in Example 6.

Assay [3] addresses T2, human GPC3 expressed on cells …. Kind of assay: flow cytometry on HepG2 tumor cells (GPC3 high). The procedure:
as §1, §2
On the technique in general: A flow cytometer gives signals particle by particle.

In assay [4] the target is T1, huCD137-His (recombinant human CD137 …). Kind of assay: ELISA, huCD137-His coated, detection anti-NGAL-HRP. Here is the method:
Recombinant huGPC3 (R&D Systems) at the concentration of 1 μg/mL in PBS was coated overnight on microtiter plates at 4° C. After five washes with 100 μL PBS-0.05% T (PBS supplemented with 0.05% (v/v) Tween 20), the plates were blocked with 2% BSA (w/v) in PBS-0.1% T (PBS-0.1% T-2% BSA) for 1 h at room temperature. After washing with 100 μL PBS-0.05% T (PBS supplemented with 0.05% (v/v) Tween 20) five times, exemplary fusion proteins (SEQ ID NOs: 87 and […] and CD137Ac1-Fusion 1 to 7) or the GPC3 antibody as include in the fusion proteins (SEQ ID NOs: 81 and 82) at different concentrations were added to the wells and incubated for 1 h at room temperature, followed by another wash step. Bound molecules under study were detected by incubation with 1:5000 diluted anti-human IgG Fc-HRP (Jackson Laboratory) in PBS-0.1% T-2% BSA. After an additional wash step, fluorogenic HRP substrate (QuantaBlu, Thermo) was added to each well and the fluorescence intensity was detected using a fluorescence microplate reader.
The same ELISA setup was also employed to determine the binding potency of fusion proteins to cynomolgus GPC3 and huCD137, where recombinant cyGPC3 (R&D Systems) or huCD137-His (recombinant human CD137 with C-terminal polyhistidine tag, R&D Systems) was instead coated on a microtiter plate. The testing agents were similarly titrated and bound agents were detected via anti-NGAL-HRP. […]

In assay [5] the target is T2, human GPC3 expressed on cells …. Kind of assay: flow cytometry on SK-Hep1::huGPC3 cells, anti-human IgG detection. Here is the method: For flow cytometric analysis, respective cell lines were incubated with an exemplary fusion protein (SEQ ID NOs: 87 and 82), the GPC3 antibody or the CD137 specific lipocalin mutein (Fc fusion) as included in the fusion protein (SEQ ID NOs: 81 and 82 and SEQ ID NO: 98, respectively), a reference CD137 antibody SEQ ID NOs: 26 and 27, or an isotype control (SEQ ID NOs: 24 and 25) and detected using a fluorescently labeled anti-human IgG antibody in FACS analysis as described in the following:
as §1

The target of assay [6] is human CD137 expressed on cells (Flp-In-CHO::huCD137; NFkB-luc2/CD137 Jurkat cells) (human, UniProt Q07011 24-255). In words: cell-based or functional assay.
Sequence of human CD137 expressed on cells (Flp-In-CHO::huCD137; NFkB-luc2/CD137 Jurkat cells) (Q07011 24-255): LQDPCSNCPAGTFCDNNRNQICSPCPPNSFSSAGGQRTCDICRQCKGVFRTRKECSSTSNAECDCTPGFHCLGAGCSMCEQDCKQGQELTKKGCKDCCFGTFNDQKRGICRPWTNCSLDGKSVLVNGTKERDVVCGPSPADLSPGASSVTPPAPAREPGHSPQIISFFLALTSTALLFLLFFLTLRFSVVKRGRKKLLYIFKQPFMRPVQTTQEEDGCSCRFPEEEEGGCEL

The EC50 is the concentration at which the effect is half-maximal.

B1: fusion protein SEQ ID NOs: 87 and 82 (bispecific antibody, human IgG4 S228P, kappa, F234A L235A)
heavy: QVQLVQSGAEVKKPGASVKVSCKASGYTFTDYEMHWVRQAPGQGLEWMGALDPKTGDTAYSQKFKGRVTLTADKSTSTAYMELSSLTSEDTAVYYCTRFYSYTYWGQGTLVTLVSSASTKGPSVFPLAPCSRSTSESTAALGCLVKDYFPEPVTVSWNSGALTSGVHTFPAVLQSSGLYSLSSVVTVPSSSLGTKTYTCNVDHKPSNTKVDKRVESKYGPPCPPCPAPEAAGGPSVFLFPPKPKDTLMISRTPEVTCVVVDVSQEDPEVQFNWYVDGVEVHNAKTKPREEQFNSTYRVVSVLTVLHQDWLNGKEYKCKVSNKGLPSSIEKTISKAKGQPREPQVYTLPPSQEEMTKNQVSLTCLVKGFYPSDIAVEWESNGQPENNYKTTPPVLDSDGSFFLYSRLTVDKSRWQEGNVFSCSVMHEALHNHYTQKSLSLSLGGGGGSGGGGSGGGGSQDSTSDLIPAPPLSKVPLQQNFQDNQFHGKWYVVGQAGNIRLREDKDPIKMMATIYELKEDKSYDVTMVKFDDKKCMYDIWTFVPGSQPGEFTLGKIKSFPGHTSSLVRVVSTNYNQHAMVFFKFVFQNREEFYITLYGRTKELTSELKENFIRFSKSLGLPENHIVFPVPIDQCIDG
light: DVVMTQSPLSLPVTPGEPASISCRSSQSLVHSNRNTYLHWYLQKPGQSPQLLIYKVSNRFSGVPDRFSGSGSGTDFTLKISRVEAEDVGVYYCSQNTHVPPTFGQGTKLEIKRTVAAPSVFIFPPSDEQLKSGTASVVCLLNNFYPREAKVQWKVDNALQSGNSQESVTEQDSKDSTYSLSSTLTLSKADYEKHKVYACEVTHQGLSSPVTKSFNRGEC
notes: also called exemplary fusion protein
Consider B1, for which the 50% effective concentration (EC50) was found to be 4.2 nM in assay [1]; 7.92 nM in assay [2]; 20.6 nM in assay [3]; 0.52 nM in assay [4]; 23.2 nM in assay [5]. The “EC50, CD137 Bioassay (NFkB-luc2/CD137 Jurkat cells co-cultured with Hep3B)” value in assay [6] stood at 0.78 nM. Moreover, in assay [6], the “EC50, CD137 Bioassay (NFkB-luc2/CD137 Jurkat cells co-cultured with HepG2)” value stood at 0.38 nM.

The record behind these values is patent publication US20220153864A1 (Pieris, published 2022).
